Test results as given in article PMC6783313.

Target: ClpP1(S98A) from Listeria monocytogenes (Listeria monocytogenes)
Assay: cryo-EM structure

Substance: ClpP1(S98A) from Listeria monocytogenes (natural protein)
- stoichiometry N: 7
